Patent publication US20080118978A1 (published 2008)

Key:
CD10 [1] = molecular target: T1, CD10 (human, UniProt P08473 2-750); assay: ELISA on plate-coated membrane fraction of CD10-expressing SBC-3 cells
T1 construct: Endogenous CD10 of human cell lines: on Raji, RTX/Raji and Ramos cells in flow cytometry; In the ELISA it was a Triton X-100-dissolved membrane fraction of SBC-3 cells coated on the plate; also called CALLA; neutral endopeptidase
Experimental: As to an antigen, a membrane fraction prepared from human lung small-cell tumor cell line SBC-3 cells (JCRB 0818) which highly express CD10 was used. The membrane fraction was suspended in 20 mM HEPES (pH 7.4) buffer containing 1 mM EDTA and 250 mM sucrose and cells were crushed using a homogenizer, then centrifugal separation was carried out at a low speed of 8,000×g so that granules in the cells and uncrushed cells were precipitated and removed and a centrifugal separation was carried out at a high speed of 80,000×g to separate the desired cell membrane. The separated membrane fraction was dissolved in PBS containing 0.1% of Triton-X 100 whereby protein was quantified, then made 10 μg/mL, dispensed at 50 μL/well into a 96-well plate for ELISA (manufactured by Gliner) and allowed to stand at 4° C. for one night for adsorption. After washing with PBS, 1% BSA-PBS was added in an amount of 100 μL/well and the reaction was carried out at room temperature for 1 hour to block the remaining active groups were blocked. […] After the reaction, each well was washed with Tween-PBS, a peroxidase-labeled goat anti-human IgG (H&L) antibody solution diluted 2,000-fold with 1% BSA-PBS was added as a secondary antibody solution in an amount of 50 μL/well and reaction was carried out at room temperature for 1 hour. After the reaction, washing was carried out with Tween-PBS, an ABTS substrate solution was added in an amount of 50 μL/well to develop color and OD415 was measured.

CD10 [2] = molecular target: T1, CD10; assay: flow cytometry on Raji and RTX/Raji cells, FITC anti-mouse IgG secondary
Experimental: The supernatant liquid was removed, cell pellets were loosened and 10 μL of FcR blocking reagent (manufactured by Miltenyi Biotec) was added thereto. After the mixture was allowed to stand on ice for about 30 minutes, an FACS buffer was added thereto and washed by centrifugal separation (about 5000×g for 1 minutes at 4° C.) was repeated three times. An FACS buffer was added so as to give a cell density of 2×10⁷ cells/ml for suspension and each 50 μL thereof was aliquated into a tube. The FACS buffer (50 μL) was added to each tube to suspend and the primary antibody solution was added thereto in an amount of 2.5 μL per tube. With regard to the primary antibody solution, each of mouse anti-CD10 antibody NL-1 [Proc. Natl. Acad. Sci. USA, 79, 4386 (1982)], anti-CD20 antibody B1 (manufactured by Beckman Coulter), FITC-labeled anti-CD19 antibody J4.119 (manufactured by Beckman Coulter) and FITC-labeled anti-CD22 antibody SJ.10.1H11 (manufactured by Beckman Coulter) was used. […] It was filtered by a Nylon mesh and transferred to a test tube to prepare a sample to be measured. Expression of CD antigen on the cell surface was measured using a flow cytometer Epics Elite (manufactured by Beckman Coulter).

T1 sequence (P08473 2-750 limits assumed): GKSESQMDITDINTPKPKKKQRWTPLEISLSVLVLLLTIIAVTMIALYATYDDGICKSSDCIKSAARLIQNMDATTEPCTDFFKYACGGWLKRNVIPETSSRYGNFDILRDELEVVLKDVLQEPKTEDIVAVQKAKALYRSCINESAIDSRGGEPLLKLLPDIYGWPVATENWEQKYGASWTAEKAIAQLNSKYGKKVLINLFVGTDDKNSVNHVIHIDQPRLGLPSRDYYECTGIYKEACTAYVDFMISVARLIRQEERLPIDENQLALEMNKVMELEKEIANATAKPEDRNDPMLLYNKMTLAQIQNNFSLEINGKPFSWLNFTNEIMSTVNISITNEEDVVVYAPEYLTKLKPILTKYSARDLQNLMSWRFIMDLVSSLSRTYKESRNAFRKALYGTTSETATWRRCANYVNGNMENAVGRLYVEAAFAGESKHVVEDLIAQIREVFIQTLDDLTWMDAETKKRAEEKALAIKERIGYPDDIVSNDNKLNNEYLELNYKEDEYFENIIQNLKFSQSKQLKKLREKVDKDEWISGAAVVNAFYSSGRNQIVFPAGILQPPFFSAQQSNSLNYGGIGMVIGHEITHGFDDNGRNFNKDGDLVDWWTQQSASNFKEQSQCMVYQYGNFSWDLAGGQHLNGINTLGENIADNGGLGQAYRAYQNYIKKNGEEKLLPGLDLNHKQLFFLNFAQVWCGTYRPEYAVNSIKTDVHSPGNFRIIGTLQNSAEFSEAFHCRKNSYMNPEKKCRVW

Binder | binding result (CD10 [1]) | binding result (CD10 [2])
anti-CD10 humanized antibody HV0LV9 MS705 (antibody, V domains shown, also called HV0LV9 MS705 antibody; FERM BP-10099) VH: EVQLVESGGGVVQPGRSLRLSCAASGFTFSSFGMHWVRQAPGKGLEWVAYISGGSYTIYYADTVKGRFTISRDNSKNTLYLQMNSLRAEDTAVYYCARSYGNFWYFDVWGQGTTVTVSS VL: DIVMTQSPDSLAVSLGERATIACSVSSSISSSNLHWYQQKPGQSPKPWIYGTSNLASGVPVRFSGSGSGTSYFLTISSLQAEDVATYYCQQWSSYPLTFGQGTKVEIKR | binds | –
anti-CD10 humanized antibody HV0LV0 MS705 (antibody, V domains shown, also called HV0LV0 MS705 antibody) VH: EVQLVESGGGVVQPGRSLRLSCAASGFTFSSFGMHWVRQAPGKGLEWVAYISGGSYTIYYADTVKGRFTISRDNSKNTLYLQMNSLRAEDTAVYYCARSYGNFWYFDVWGQGTTVTVSS VL: DIVMTQSPDSLAVSLGERATINCSVSSSISSSNLHWYQQKPGQPPKLLIYGTSNLASGVPDRFSGSGSGTDFTLTISSLQAEDVAVYYCQQWSSYPLTFGQGTKVEIKR | binds | –
anti-CD10 humanized antibody HV2LV9 MS705 (antibody, V domains shown, also called HV2LV9 MS705 antibody) VH: EVQLVESGGGVVQPGRSLRLSCAASGFTFSSFGMHWVRQAPEKGLEWVAYISGGSYTIYYADTVKGRFTISRDNSKNTLYLQMNSLRAEDTAVYYCASSYGNFWYFDVWGQGTTVTVSS VL: DIVMTQSPDSLAVSLGERATIACSVSSSISSSNLHWYQQKPGQSPKPWIYGTSNLASGVPVRFSGSGSGTSYFLTISSLQAEDVATYYCQQWSSYPLTFGQGTKVEIKR | binds | –
mouse anti-CD10 antibody NL-1 (antibody, V domains shown, Mouse hybridoma antibody; H chain cloned with a mouse Cgamma2a probe and L chain with a Ckappa probe; also called anti-CD10 mouse antibody NL-1) VH: DVQLVESGGGLVQPGGSRKLSCAASGFTFSSFGMHWVRQAPEKGLEWVAYISGGSYTIYYADTVKGRFTISRDNPKNTLFLQMTSLRSEDTAMYYCASSYGNFWYFDVWGAGTTVTVSS VL: EIVLTQSPALMAASPGEKVTIACSVSSSISSSNLHWYQQKSETSPKPWIYGTSNLASGVPVRFSGSGSGTSYFLTISSMEAEDAATYYCQQWSSYPLTFGGGTKLEIK | – | binds
